Target: DQ1-MBP85-99 complex, monobiotinylated (SPR)
Experiment: SPR

Substance | Kd [µM]
Hy.1B11 TCR mutant CDR2β Q48A | 108
Hy.1B11 TCR mutant CDR3α F95A | > 250
Hy.1B11 TCR mutant CDR3α E98A | > 250

Stronger by Kd, values ahead:

Kd [µM] | Substance
14.3 | Hy.1B11 TCR, soluble monomeric wild type
13.8 | Hy.1B11 TCR double mutant CDR1α N31A and CDR2α S52A
